The target in series [1] is recombinant human pro-HGF, P14210.
Series [2] has as its target prekallikrein purified from human plasma, P03952.
The target of series [3] is T1, full-length coagulation factor XII purified from human plasma, P00748.
T1 chain: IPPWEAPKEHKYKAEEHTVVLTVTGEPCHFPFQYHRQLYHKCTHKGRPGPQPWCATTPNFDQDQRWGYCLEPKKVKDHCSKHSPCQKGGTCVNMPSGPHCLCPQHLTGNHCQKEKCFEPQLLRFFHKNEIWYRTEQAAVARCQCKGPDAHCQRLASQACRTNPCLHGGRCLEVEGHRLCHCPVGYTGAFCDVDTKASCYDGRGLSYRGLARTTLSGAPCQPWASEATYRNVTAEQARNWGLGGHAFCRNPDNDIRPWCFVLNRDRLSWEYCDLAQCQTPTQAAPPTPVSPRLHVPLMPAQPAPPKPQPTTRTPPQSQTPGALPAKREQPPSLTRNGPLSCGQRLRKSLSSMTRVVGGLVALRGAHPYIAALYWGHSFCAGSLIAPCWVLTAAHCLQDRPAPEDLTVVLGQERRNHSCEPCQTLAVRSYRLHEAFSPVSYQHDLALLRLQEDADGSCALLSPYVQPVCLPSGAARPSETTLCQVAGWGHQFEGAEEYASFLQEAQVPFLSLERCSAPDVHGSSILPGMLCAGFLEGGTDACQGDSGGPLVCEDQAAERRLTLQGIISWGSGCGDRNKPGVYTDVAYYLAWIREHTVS

recombinant human pro-HGF, P14210, sequence (P14210 32-728): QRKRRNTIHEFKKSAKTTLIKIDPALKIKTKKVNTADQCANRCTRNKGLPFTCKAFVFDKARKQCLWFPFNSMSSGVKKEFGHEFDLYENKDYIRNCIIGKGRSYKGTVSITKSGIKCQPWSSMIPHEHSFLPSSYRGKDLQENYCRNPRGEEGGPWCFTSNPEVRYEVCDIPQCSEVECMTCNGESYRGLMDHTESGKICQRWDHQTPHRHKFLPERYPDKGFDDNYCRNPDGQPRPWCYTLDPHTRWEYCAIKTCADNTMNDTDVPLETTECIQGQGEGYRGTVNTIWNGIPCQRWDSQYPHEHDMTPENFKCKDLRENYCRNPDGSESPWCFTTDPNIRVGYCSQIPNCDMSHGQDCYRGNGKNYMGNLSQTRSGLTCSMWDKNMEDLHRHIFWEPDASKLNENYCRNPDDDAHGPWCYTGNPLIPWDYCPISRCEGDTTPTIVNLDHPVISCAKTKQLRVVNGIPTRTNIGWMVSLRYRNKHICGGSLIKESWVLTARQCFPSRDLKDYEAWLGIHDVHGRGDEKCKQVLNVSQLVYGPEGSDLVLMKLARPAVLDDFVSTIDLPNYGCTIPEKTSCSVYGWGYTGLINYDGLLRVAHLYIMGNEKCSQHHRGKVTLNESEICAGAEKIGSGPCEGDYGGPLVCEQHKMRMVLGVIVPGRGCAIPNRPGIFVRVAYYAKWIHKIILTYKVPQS
prekallikrein purified from human plasma, P03952, sequence (P03952 20-638): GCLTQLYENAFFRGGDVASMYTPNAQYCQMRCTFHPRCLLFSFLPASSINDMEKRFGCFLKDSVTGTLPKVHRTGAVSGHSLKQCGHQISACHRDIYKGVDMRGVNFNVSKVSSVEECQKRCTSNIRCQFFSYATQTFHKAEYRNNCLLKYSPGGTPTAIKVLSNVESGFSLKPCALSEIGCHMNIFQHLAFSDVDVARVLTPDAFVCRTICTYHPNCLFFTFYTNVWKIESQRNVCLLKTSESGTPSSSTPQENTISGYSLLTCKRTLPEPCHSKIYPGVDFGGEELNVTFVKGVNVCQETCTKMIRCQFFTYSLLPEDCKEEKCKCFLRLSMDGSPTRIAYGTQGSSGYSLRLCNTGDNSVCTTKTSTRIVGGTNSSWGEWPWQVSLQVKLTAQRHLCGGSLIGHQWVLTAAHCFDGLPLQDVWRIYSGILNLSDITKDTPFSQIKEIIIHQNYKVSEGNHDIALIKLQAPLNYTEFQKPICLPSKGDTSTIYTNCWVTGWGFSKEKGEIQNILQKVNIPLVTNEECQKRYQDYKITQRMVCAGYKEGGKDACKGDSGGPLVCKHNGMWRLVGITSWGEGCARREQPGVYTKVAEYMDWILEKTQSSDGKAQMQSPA

B1: recombinant human hepatocyte growth factor activator (protein)
chain: QPGGNRTESPEPNATATPAIPTILVTSVTSETPATSAPEAEGPQSGGLPPPPRAVPSSSSPQAQALTEDGRPCRFPFRYGGRMLHACTSEGSAHRKWCATTHNYDRDRAWGYCVEATPPPGGPAALDPCASGPCLNGGSCSNTQDPQSYHCSCPRAFTGKDCGTEKCFDETRYEYLEGGDRWARVRQGHVEQCECFGGRTWCEGTRHTACLSSPCLNGGTCHLIVATGTTVCACPPGFAGRLCNIEPDERCFLGNGTGYRGVASTSASGLSCLAWNSDLLYQELHVDSVGAAALLGLGPHAYCRNPDNDERPWCYVVKDSALSWEYCRLEACESLTRVQLSPDLLATLPEPASPGRQACGRRHKKRTFLRPRIIGGSSSLPGSHPWLAAIYIGDSFCAGSLVHTCWVVSAAHCFSHSPPRDSVSVVLGQHFFNRTTDVTQTFGIEKYIPYTLYSVFNPSDHDLVLIRLKKKGDRCATRSQFVQPICLPEPGSTFPAGHKCQIAGWGHLDENVSGYSSSLREALVPLVADHKCSSPEVYGADISPNMLCAGYFDCKSDACQGDSGGPLACEKNGVAYLYGIISWGDGCGRLHKPGVYTRVANYVDWINDRIRPPRRLVAPS
In the case of B1, the “cleavage of pro-HGF, western blot” value in series [1] was “We confirmed the ability of hepatocyte growth factor activator (HGFA) and βFXIIa to cleave pro-HGF”.

B2: kallikrein-activated FXII297-596 (protein)
chain: MPAQPAPPKPQPTTRTPPQSQTPGALPAKREQPPSLTRNGPLSCGQRLRKSLSSMTRVVGGLVALRGAHPYIAALYWGHSFCAGSLIAPCWVLTAAHCLQDRPAPEDLTVVLGQERRNHSCEPCQTLAVRSYRLHEAFSPVSYQHDLALLRLQEDADGSCALLSPYVQPVCLPSGAARPSETTLCQVAGWGHQFEGAEEYASFLQEAQVPFLSLERCSAPDVHGSSILPGMLCAGFLEGGTDACQGDSGGPLVCEDQAAERRLTLQGIISWGSGCGDRNKPGVYTDVAYYLAWIREHTVS
Regarding B2, the “cleavage of pro-HGF (25 ug/mL) by activated FXII297-596 (225 nM), western blot with anti-HGF” value in series [1] is listed as “kallikrein-activated FXII297-596 cleaved pro-HGF to the active two-chain form”. Besides, the “cleavage of prekallikrein (200 nM) by activated FXII297-596 (225 nM), western blot for kallikrein heavy chain” value in series [2] is “activated FXII297-596 converted prekallikrein to kallikrein as seen through the generation of kallikrein heavy chain”.

B3: recombinant human FXII297-596 (protein)
chain: MPAQPAPPKPQPTTRTPPQSQTPGALPAKREQPPSLTRNGPLSCGQRLRKSLSSMTRVVGGLVALRGAHPYIAALYWGHSFCAGSLIAPCWVLTAAHCLQDRPAPEDLTVVLGQERRNHSCEPCQTLAVRSYRLHEAFSPVSYQHDLALLRLQEDADGSCALLSPYVQPVCLPSGAARPSETTLCQVAGWGHQFEGAEEYASFLQEAQVPFLSLERCSAPDVHGSSILPGMLCAGFLEGGTDACQGDSGGPLVCEDQAAERRLTLQGIISWGSGCGDRNKPGVYTDVAYYLAWIREHTVS
Consider B3, for which, in series [2], the “cleavage of prekallikrein, western blot” value is “no cleavage of prekallikrein was observed with non-activated FXII297-596”.

B4: two-chain tissue plasminogen activator (protein)
chain: SYQVICRDEKTQMIYQQHQSWLRPVLRSNRVEYCWCNSGRAQCHSVPVKSCSEPRCFNGGTCQQALYFSDFVCQCPEGFAGKCCEIDTRATCYEDQGISYRGTWSTAESGAECTNWNSSALAQKPYSGRRPDAIRLGLGNHNYCRNPDRDSKPWCYVFKAGKYSSEFCSTPACSEGNSDCYFGNGSAYRGTHSLTESGASCLPWNSMILIGKVYTAQNPSAQALGLGKHNYCRNPDGDAKPWCHVLKNRRLTWEYCDVPSCSTCGLRQYSQPQFRIKGGLFADIASHPWQAAIFAKHRRSPGERFLCGGILISSCWILSAAHCFQERFPPHHLTVILGRTYRVVPGEEEQKFEVEKYIVHKEFDDDTYDNDIALLQLKSDSSRCAQESSVVRTVCLPPADLQLPDWTECELSGYGKHEALSPFYSERLKEAHVRLYPSSRCTSQHLLNRTVTDNMLCAGDTRSGGPQANLHDACQGDSGGPLVCLNDGRMTLVGIISWGLGCGQKDVPGVYTKVTNYLDWIRDNMRP
For the protein B4, the “cleavage of pro-HGF, western blot” value in series [1] is “other serine proteases found in the brain such as thrombin and tissue plasminogen activator did not convert pro-HGF to HGF”.

B5: βFXIIa (protein)
chain: NGPLSCGQRLRKSLSSMTRVVGGLVALRGAHPYIAALYWGHSFCAGSLIAPCWVLTAAHCLQDRPAPEDLTVVLGQERRNHSCEPCQTLAVRSYRLHEAFSPVSYQHDLALLRLQEDADGSCALLSPYVQPVCLPSGAARPSETTLCQVAGWGHQFEGAEEYASFLQEAQVPFLSLERCSAPDVHGSSILPGMLCAGFLEGGTDACQGDSGGPLVCEDQAAERRLTLQGIISWGSGCGDRNKPGVYTDVAYYLAWIREHTVS
B5: the “cleavage of pro-HGF, western blot” value in series [1] was “We confirmed the ability of hepatocyte growth factor activator (HGFA) and βFXIIa to cleave pro-HGF”.

B6: cathepsin K (protein)
chain: APDSVDYRKKGYVTPVKNQGQCGSCWAFSSVGALEGQLKKKTGKLLNLSPQNLVDCVSENDGCGGGYMTNAFQYVQKNRGIDSEDAYPYVGQEESCMYNPTGKAAKCRGYREIPEGNEKALKRAVARVGPVSVAIDASLTSFQFYSKGVYYDESCNSDNLNHAVLAVGYGIQKGNKHWIIKNSWGENWGNKGYILMARNKNNACGIANLASFPKM
Regarding B6, the “cleavage of FXII (1.25 uM) by cathepsin K (100 nM), non-reducing SDS-PAGE with Coomassie staining” value in series [3] was “incubation of full-length FXII with cathepsin K generated stable FXII fragments with sizes supporting cleavage between L296 and M297”.

B7: kallikrein-activated FXII (protein)
chain: IPPWEAPKEHKYKAEEHTVVLTVTGEPCHFPFQYHRQLYHKCTHKGRPGPQPWCATTPNFDQDQRWGYCLEPKKVKDHCSKHSPCQKGGTCVNMPSGPHCLCPQHLTGNHCQKEKCFEPQLLRFFHKNEIWYRTEQAAVARCQCKGPDAHCQRLASQACRTNPCLHGGRCLEVEGHRLCHCPVGYTGAFCDVDTKASCYDGRGLSYRGLARTTLSGAPCQPWASEATYRNVTAEQARNWGLGGHAFCRNPDNDIRPWCFVLNRDRLSWEYCDLAQCQTPTQAAPPTPVSPRLHVPLMPAQPAPPKPQPTTRTPPQSQTPGALPAKREQPPSLTRNGPLSCGQRLRKSLSSMTRVVGGLVALRGAHPYIAALYWGHSFCAGSLIAPCWVLTAAHCLQDRPAPEDLTVVLGQERRNHSCEPCQTLAVRSYRLHEAFSPVSYQHDLALLRLQEDADGSCALLSPYVQPVCLPSGAARPSETTLCQVAGWGHQFEGAEEYASFLQEAQVPFLSLERCSAPDVHGSSILPGMLCAGFLEGGTDACQGDSGGPLVCEDQAAERRLTLQGIISWGSGCGDRNKPGVYTDVAYYLAWIREHTVS
On to B7, for which the “cleavage of pro-HGF (25 ug/mL) by kallikrein-activated FXII (50 nM), western blot” value in series [1] is “Pro-HGF was cleaved by kallikrein-activated FXII297-596 and kallikrein-activated FXII (arrows), but not by inactivated kallikrein alone”.

The record behind these values is US20200315149.
